{"source": "patent US20120207676", "about": "(published 2012)", "key": {"[1]": {"target": "T1, Neurotensin receptor NTS1 (HT29 cells/membranes) (human, UniProt P30989)", "T1 sequence (P30989 whole entry)": "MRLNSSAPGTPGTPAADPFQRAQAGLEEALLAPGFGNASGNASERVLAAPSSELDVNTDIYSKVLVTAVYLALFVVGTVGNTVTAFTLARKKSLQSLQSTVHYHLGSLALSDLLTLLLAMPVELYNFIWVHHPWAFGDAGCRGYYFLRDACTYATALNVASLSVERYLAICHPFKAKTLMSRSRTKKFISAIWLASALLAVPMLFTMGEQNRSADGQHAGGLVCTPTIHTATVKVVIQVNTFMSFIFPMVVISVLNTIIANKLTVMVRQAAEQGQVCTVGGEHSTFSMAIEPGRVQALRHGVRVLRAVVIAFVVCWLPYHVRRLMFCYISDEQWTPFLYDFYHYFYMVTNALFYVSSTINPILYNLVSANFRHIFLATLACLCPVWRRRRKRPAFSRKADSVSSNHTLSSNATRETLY", "experiment": "competition, HT29 cells"}, "[2]": {"target": "T1, Neurotensin receptor NTS1 (HT29 …)", "experiment": "competition, HT29 membranes"}}}
{"binder": "KPRRPYIL (not fully specified; N-methylated Pro7-Arg8 bond, Tle12; DOTA(Ga) at Lys6)", "note": "[DOTA(Ga)-NT-20.3]", "values": [{"measurement": "IC50", "setting": "[1]", "value": 13.9, "unit": "nM"}]}
{"binder": "KPRRPYIL (not fully specified; N-methylated Pro7-Arg8 bond, Tle12; DTPA(In) at Lys6)", "note": "[DTPA(In)-NT-20.3]", "values": [{"measurement": "IC50", "setting": "[1]", "value": 15.9, "unit": "nM"}, {"measurement": "Ki", "setting": "[2]", "value": 2.24, "unit": "nM"}]}
{"binder": "KPRRPYIL (NT(6-13) analogue, N-methylated Pro7-Arg8 bond, Tle12)", "note": "[NT-20.3]", "values": [{"measurement": "IC50", "setting": "[1]", "value": 2.2, "unit": "nM"}, {"measurement": "Ki", "setting": "[2]", "value": 0.16, "unit": "nM"}]}
{"binder": "KPRRPYIL (not fully specified; N-methylated Pro7-Arg8 bond, Tle12; DOTA(Y) at Lys6)", "note": "[DOTA(Y)-NT-20.3]", "values": [{"measurement": "IC50", "setting": "[1]", "value": 7, "unit": "nM"}]}
{"binder": "KPRRPYIL (not fully specified; N-methylated Pro7-Arg8 bond, Tle12; DOTA(In) at Lys6)", "note": "[DOTA(In)-NT-20.3]", "values": [{"measurement": "IC50", "setting": "[1]", "value": 14.9, "unit": "nM"}]}
